± gives the half width of the 95% confidence interval.
Experiment: folding stability dG unfold (combined trypsin and chymotrypsin); higher = more stable
Description: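 Folding stability of de novo designed mini-proteins (<80 aa, no Cys; designed by TrROS, TrMRF, ProteinMPNN and the joint model) was measured by cDNA display proteolysis with trypsin and chymotrypsin. Each protease was used at 11 concentrations in a threefold dilution series plus a no-protease condition. K50 was inferred by Bayesian fitting of sequencing counts, and dG unfold was derived against a sequence-predicted unfolded-state K50 (Tsuboyama et al. method). Sequences shown include variable-length N-terminal GS-type padding (SAGGSAGG...) inside a display construct carrying a PA tag. Rows were kept only if the AF2 dimer inter-PAE was >15, to exclude likely homo-oligomers.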

| Sequence | folding stability dG unfold [kcal/mol] |
| --- | --- |
| SAGGSAGGSATIRPGEPIRIKIKYPNPDGKPQERTYNGNVPPGSTLEELADNFPGYKVEIEKSAGGSAGGSA [r18_279_TrROS] | < -1 |
| SAGGSAGGSDKEREVPIEVRYPNQPLKIPVEFKDEEDAPHKARSAIKPLMKKLPMVKIPKPDDSAGGSAGGS [r12_230_TrROS] | < -1 |
| SAGGSAGGSDPNIKVEIWHPNNGQPRTFPAGDSIDELAENMPGPVQIKIEYPGKEKTLMIPFKSAGGSAGGS [r12_1056_TrROS] | < -1 |
| SAGGSAGGSEIEIMAPFKSPEDARDQIREFAREKGLEIKPKKIEVHRNPNGWQWVTFKIEIKDSAGGSAGGS [r12_924_TrROS] | < -1 |
| SAGGSAGGSEKYRVRFPDGQPLPFPNGKSHPMKPGEEMEIESPEDKDRLKDHFPGFPVEVEPLSAGGSAGGS [r12_987_TrROS] | < -1 |
| SAGGSAGGSFEVHYDPEPNNLTIRMEFPGGRRTYRIPSADDVKDWFEDMGMPFKPMEITKIEPSAGGSAGGS [r12_834_TrROS] | < -1 |
| SAGGSAGGSGEFLSDLPPDWEVSTEPLPSDTVRYTVTAPTGPVSAVSLPVGDREVRTSATPPVSAGGSAGGS [r20_50_JUSTAS] | < -1 |
| SAGGSAGGSGGLGGEPISVRTELVTVPVELEEEVLLPGGVPLPRRRTVERVVAVTTRVPPGAALSAGGSAGG [r6_526_JUSTAS] | < -1 |
| SAGGSAGGSGKKYILRFKNPEKARSFAKPLGLKVKPGDDLPVDDPEKFLKSLPLLKDIVVEDKSAGGSAGGS [r12_571_TrMRF] | < -1 |
| SAGGSAGGSGMAVVEVDITGPTSTSEEEAQARAEALAAEIAAASDSADVRATVRFSRVPPELPSAGGSAGGS [r12_522_JUSTAS] | < -1 |
| SAGGSAGGSGSGSVTVPVTSTDPVTGKPSVSTVTVSLDVVPPPPVPATVFFDPVRGRRSTDLGGSAGGSAGG [r6_926_JUSTAS] | < -1 |
| SAGGSAGGSHWAEELAKEAGLKVKIDDMMKNPDGYPYVIVKIKPPDGGKRTVMFDGNQPRIYPSAGGSAGGS [r12_279_TrROS] | < -1 |
| SAGGSAGGSKIKIEDIHPNPNGMFMFRIRPPDNGKPREVPFDSPEDAERFADELEEDGYKIEISAGGSAGGS [r20_177_TrROS] | < -1 |
| SAGGSAGGSLKPGAPVMYRIRNPENGRKFPFQIKIKEDGGIDIEYPSNGKTMTIPPDNIEPVPSAGGSAGGS [r12_726_TrROS] | < -1 |
| SAGGSAGGSLRPGEPFKIYSPNGEKFPFKIESVEVDPDGEIPLTITNPNGKPIGPFPYRIKPLSAGGSAGGS [r12_735_TrROS] | < -1 |
| SAGGSAGGSMDLEDMKIKSIYIPDNPIMITFKNKGKHRTRTIPEDNWQILKDLLGDGDITIHPSAGGSAGGS [r12_604_TrROS] | < -1 |
| SAGGSAGGSMEMETYPLNGFTVMVMRNPNDGRETVQIFMPDNGKPIQMPPEDLQQDPDLIDALSAGGSAGGS [r12_817_TrROS] | < -1 |
| SAGGSAGGSMKKLLVERKPDGTVTVVDVLPADRSAEELPPEELTSFTLLPFESLEEALKKAAASAGGSAGGS [r12_452_JUSTAS] | < -1 |
| SAGGSAGGSMKYLVRFPEGGSLPFPDGSSVPMKPGEVLEVESPADVEALKKLAPGRDIEVEPVSAGGSAGGS [r12_987_TrMRF] | < -1 |

| Sequence | folding stability dG unfold [kcal/mol] |
| --- | --- |
| SAGGSAGGSMNEVSEEEAIAEAVAKHAPDEPVTYELKDNKKIVVNVNGADPANVSIEVIPIKNSAGGSAGGS [r12_648_JUSTAS] | < -1 |
| SAGGSAGGSNIKDALDNFPPGYQTDVDPNSGTISVRFPDEGWEHQIEIPAEEGKVEINEWKPYSAGGSAGGS [r12_82_TrROS] | < -1 |
| SAGGSAGGSNVEIDTTRTPDRYTVKIRFPDNGKKVEIPFDPGQPPNQAKDRAKELAKKNGIKISAGGSAGGS [r12_764_TrROS] | < -1 |
| SAGGSAGGSPIPVPLVIFFPDSETTEIVPATPELFEALAAELAALGPVVRRGPERTMTITVPRSAGGSAGGS [r12_292_JUSTAS] | < -1 |
| SAGGSAGGSPIRRALRYVREQFPPGQPYRVRARNPGNGKEREIEVPWNDPEELDNTKDIEVEPYSAGGSAGG [r6_402_TrROS] | < -1 |
| SAGGSAGGSPKPMKLRFRNPDNGMPFEVNVDKIDPDGQLRVEIEQPNGKTRKIDNIDNVEIEKSAGGSAGGS [r12_118_TrROS] | < -1 |
| SAGGSAGGSPKWKVEPIGNRIRIMIPDGPYYTARLPDDVKLDLDEGKFKFPPGLEVEPVPLKESAGGSAGGS [r20_158_TrROS] | < -1 |
| SAGGSAGGSPPPKVKVKKFHRDPPNGYVRANIEFPDKRDIEIQMENMPPDQAEEKAKNLAKKLSAGGSAGGS [r20_181_TrROS] | < -1 |
| SAGGSAGGSRYFIRIELRHPDDGQEYEPTIPINPGQTEEQVKQEIREHHPGADIKDIEIYPMDSAGGSAGGS [r12_738_TrROS] | < -1 |
| SAGGSAGGSSAITHPDSDAGVAPVATTRSPNATPETVLRDDSPDPRRWILTASGERRVEPLLESAGGSAGGS [r12_205_JUSTAS] | < -1 |
| SAGGSAGGSSDIKIYEIPEKGEIVVERPPSEKVTIDINNHPLEGSLTPLPGNKYLWKVKIKSPSAGGSAGGS [r12_970_JUSTAS] | < -1 |
| SAGGSAGGSSHMEVEKAAKELSSEVGFEKSSNGPDSVSFTFDPAKPELVRALAEKFGIDLKVESAGGSAGGS [r12_74_JUSTAS] | < -1 |
| SAGGSAGGSSLAEEIARLLGLESETLSESVSPTPRSLTLTRFKPPEDGELIVFYDGEVPTILPSAGGSAGGS [r12_279_JUSTAS] | < -1 |
| SAGGSAGGSSMPSDVPVDIPVKVTRTVPNGPTSEEELVLSTTRPDASIEEVLEELKKKGWTIESAGGSAGGS [r20_27_JUSTAS] | < -1 |
| SAGGSAGGSSPKRTIEITLPKDASEEELQATANAIAKELGAPNVQVEVSPVPEDYRLVKVIVESAGGSAGGS [r20_208_JUSTAS] | < -1 |
| SAGGSAGGSSPPDATIPREEAEKYVKEKVREENLKAGKPLKKVKKLIVKEDPNSDNVKVTVIESAGGSAGGS [r12_583_JUSTAS] | < -1 |
| SAGGSAGGSSWDEVREIAREARKEGFPMVSIRYDDKNTHQINFEDGPIEPLPNPDNVKIEIMRSAGGSAGGS [r20_44_TrROS] | < -1 |
| SAGGSAGGSSYTLVRVVEHPDSVVEYYKAPDGTVIVKRNDEEIEIPPSVPASSLPEDADVVLESAGGSAGGS [r12_594_JUSTAS] | < -1 |
| SAGGSAGGSTAEEVAEALGFEEAEVTPTGLVEVRKLPNGGYARAYRYTLKLRSPDGTERTFPISAGGSAGGS [r12_221_TrMRF] | < -1 |

| Sequence | folding stability dG unfold [kcal/mol] |
| --- | --- |
| SAGGSAGGSTAGEAESEEISVEPLPDGPYLVTRSVVRTLPDGSSEVTETVPSIATDPAEIAEASAGGSAGGS [r12_386_JUSTAS] | < -1 |
| SAGGSAGGSVIRIPPDDLRANLKPGMMVMIKDPGKPRMFPWDDLDKLPPNDPVEIEIIPMEPGSAGGSAGGS [r12_501_TrROS] | < -1 |
| SAGGSAGGSVVIPMEDLSNMPWERIRDQIKKSPDPVTITMPNPEGMKRAQDLFKEEGVPITVVSAGGSAGGS [r12_97_TrROS] | < -1 |
| SAGGSAGGSYPFRIKIVNPNGKKIIPIPYQFDPEDGKLEPFTEDQLDEIAKQLGPNFKKIEIYSAGGSAGGS [r12_514_TrROS] | < -1 |
| SAGGSAGGWIEIDPNDGKLEILYPPGMNPDELTDFIEEFGFPFKPKSVEYNPDNGMRKVEFKFKSAGGSAGG [r6_396_TrROS] | < -1 |
| SAGGSAGGYEIPIKIKITNPDNNKPVTFEIPIRYDKDNGRPPSPEQIARELAERSPGFKITEIESAGGSAGG [r6_821_TrROS] | < -1 |
| SAGGSAKPYIVIKGEYENPGKKHDMDIQIPPEDLDNPERARELAEEIKDEMRQQGAPVKDVEIEPVSAGGSA [r15_781_TrROS] | < -1 |
| SAGGSAMPVKIELVERKRDPNSDTYYATVKITNPNKTITLPIKLDVPEEEAEKEVKEKAEEIAKKGSAGGSA [r15_979_JUSTAS] | < -1 |
| SAGGSAPENDPWVWRVKIPYKKKNPNGEPERREREITFPFKSPEDAENFRDALREDGAEIEPVEPMSAGGSA [r15_117_TrROS] | < -1 |
| SAGGSAPFQIKEPDGKTETFPMNDIPPDLIKNFPDVKITMPGGQERKIPPGQKLSPGGMMTIQIPKSAGGSA [r15_733_TrROS] | < -1 |
| SAGGSAPIEIEVRLGDKPRTIDIEPNPEGMYPIKVYNDGPGKPKEHMIPPNNLDELKNLDPDRIEISAGGSA [r15_629_TrROS] | < -1 |
| SAGGSARKITIDVQPHPNGEFPINVKIRGPNGEPKKERPFNFDSPQAAKNKLKDFADKNGYEVEIWSAGGSA [r15_242_TrROS] | < -1 |
| SAGGSATIEIDPPHGKIEIEVNVPVYEKRKDPDGKEEPEPQELPPEEAQEFAKMMADTFAQKLNGKSAGGSA [r15_365_TrROS] | < -1 |
| SAGGSMETIELTINLGSKTITKTEEVSPGREEELIEKIREEGYPEIKVDKITIKPPDGSTERTIGLKSAGGS [r8_219_JUSTAS] | < -1 |
| SAGGSMKPSELANLIAEKLREKVDPNKTVRIVLEVGEGPVEFEIPSGKKIDIPENVPIKGYKVEVGSAGGSA [r2_391_TrMRF] | < -1 |
| SAGGSMTLYVRLPDRTVEADEVTVPPNGPALVRYRITDPEGEEPEIVVEPEELAELFGLTPEEIEGSAGGSA [r2_262_TrMRF] | < -1 |
| SAGGSMTTTLDFSDDSTTTITTTPTPDSSSVRSITTTDASGNPLSSTTLNFDPQGNVTETTTSSAPSAGGSA [r2_260_JUSTAS] | < -1 |
| SAGGSMVVTTEPDGSVTVTTSASSPEEAKASVIAYLKEQGLKVKSLPVEVPPDGSVTVTLPVEPPLESAGGS [r8_253_JUSTAS] | < -1 |
| SAGGSVRAVEVRLYRPEGDFPVIEIDVEAPASFPDDPELRERAARSVAGPLTRELLEELGLVPIGPSAGGSA [r2_306_TrMRF] | -0.793 ± 0.52 |
